Assay [1] addresses T1, BRD4-ET domain (for ITC) (UniProt O60885 600-678). Put plainly: ITC.
The next assay addresses GST-BRD2^632-710 (UniProt P25440 632-710). As to the kind of experiment: pull-down.
For another assay, the target named is GST-BRD3^562-640 (UniProt Q15059 562-640). Put plainly: pull-down.
For assay [2], the target named is T1, BRD4-ET domain (for ITC). As to the kind of experiment: ITC. This is another data set of the same source. A general note: Isothermal titration calorimetry measures the heat released or taken up as one component is titrated into another.
For the next assay, the target named is GST-BRD4^600-678 (UniProt O60885 600-678). As to the kind of experiment: pull-down.
A further assay addresses TurboID-BRD4-ET (UniProt O60885 600-678). As to the kind of experiment: proximity labelling.

Where two headings read alike, the source gives them in different places.

What is called Kd is a measure of binding affinity in units of concentration.

GST-BRD2^632-710, sequence (P25440 632-710): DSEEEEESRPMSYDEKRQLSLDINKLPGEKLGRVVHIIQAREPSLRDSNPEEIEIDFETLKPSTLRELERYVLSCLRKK
GST-BRD3^562-640, sequence (Q15059 562-640): as the sequence (P25440 632-710) above, with S8G, R9L, K25R, A40S, E51D, S63T, L73K, R77Q counted along it

B1: His6MBP-ASXL3^977-1027 (domain or fragment)
chain: EKRARIEDDQSTRNISSSSPPEKEQPPREEPRVPPLKIQLSKIGPPFIIKS
As for B1, the Kd with BRD4-ET domain (for ITC) [1] amounted to 2 µM.
Turning to PKVPPIRIQLSRIKPPWVVKG (domain or fragment) [His6MBP-fused ASXL1^567-587], in the assay with BRD4-ET domain (for ITC) [1], the Kd worked out at 1.36 µM.

B2: His6MBP-ASXL1^537-587 (domain or fragment)
chain: EKKPRLEDRQSFRNTIESVHTEKPQPTKEEPKVPPIRIQLSRIKPPWVVKG
In the case of B2, the binding result with GST-BRD2^632-710 and with GST-BRD3^562-640 was “binds” each time. Besides, the Kd with BRD4-ET domain (for ITC) [2] stood at 0.535 µM; with BRD4-ET domain (for ITC) [1], 1.3 µM.

B3: His6MBP-ASXL1^537-587 with the motif arginine mutated to alanine (domain or fragment)
chain: EKKPRLEDRQSFRNTIESVHTEKPQPTKEEPKVPPIAIQLSRIKPPWVVKG
On to B3, for which the binding result with GST-BRD4^600-678 is “binds”.

B4: His6MBP-ASXL1^537-587 Q575A (domain or fragment)
chain: EKKPRLEDRQSFRNTIESVHTEKPQPTKEEPKVPPIRIALSRIKPPWVVKG
Take B4: the binding result with GST-BRD4^600-678 is listed as “binds”.

B5: ASXL1^Y591X (domain or fragment)
chain: MKDKQKKKKERTWAEAARLVLENYSDAPMTPKQILQVIEAEGLKEMRSGTSPLACLNAMLHSNSRGGEGLFYKLPGRISLFTLKKDALQWSRHPATVEGEEPEDTADVESCGSNEASTVSGENDVSLDETSSNASCSTESQSRPLSNPRDSYRASSQANKQKKKTGVMLPRVVLTPLKVNGAHVESASGFSGCHADGESGSPSSSSSGSLALGSAAIRGQAEVTQDPAPLLRGFRKPATGQMKRNRGEEIDFETPGSILVNTNLRALINSRTFHALPSHFQQQLLFLLPEVDRQVGTDGLLRLSSSALNNEFFTHAAQSWRERLADGEFTHEMQVRIRQEMEKEKKVEQWKEKFFEDYYGQKLGLTKEESLQQNVGQEEAEIKSGLCVPGESVRIQRGPATRQRDGHFKKRSRPDLRTRARRNLYKKQESEQAGVAKDAKSVASDVPLYKDGEAKTDPAGLSSPHLPGTSSAAPDLEGPEFPVESVASRIQAEPDNLARASASPDRIPSLPQETVDQEPKDQKRKSFEQAASASFPEKKPRLEDRQSFRNTIESVHTEKPQPTKEEPKVPPIRIQLSRIKPPWVVKGQPT
Regarding B5, in the assay with TurboID-BRD4-ET, the “fold enhancement of BRD4-ET binding over full-length ASXL1” value is 3.5 fold and the “fold enhancement of ET-domain binding over full-length ASXL1, peptide […]” value is roughly 3 fold.

B6: His6MBP-ASXL2^582-634 (domain or fragment)
chain: EKRPRVTENRQHQQPFQVSPQPFLNRGDRIQVRKVPPLKIPVSRISPMPFHPS
B6: the Kd with BRD4-ET domain (for ITC) [1] stood at 1.1 µM.

The values are drawn from doi:10.1101/2021.07.15.452438 (bioRxiv, 2021).
